Test results taken from patent US20230331835A1 (WISCONSIN ALUMNI RESEARCH FOUNDATION, published 2023).

Target: T1, recombinant insulin receptor ecto-domain protein rIR (R&D Systems #1444-IR) (UniProt P06213-2 28-944, limits assumed)
T1 construct: extracellular domain; Bought protein; also called soluble IR ectodomain
Assay: competitive BMEC binding assay: scFv-Fc pre-incubated with soluble ectodomain, then cell surface binding on BMECs

T1 sequence (P06213 other isoform, or with tags, fused parts or gaps limits assumed): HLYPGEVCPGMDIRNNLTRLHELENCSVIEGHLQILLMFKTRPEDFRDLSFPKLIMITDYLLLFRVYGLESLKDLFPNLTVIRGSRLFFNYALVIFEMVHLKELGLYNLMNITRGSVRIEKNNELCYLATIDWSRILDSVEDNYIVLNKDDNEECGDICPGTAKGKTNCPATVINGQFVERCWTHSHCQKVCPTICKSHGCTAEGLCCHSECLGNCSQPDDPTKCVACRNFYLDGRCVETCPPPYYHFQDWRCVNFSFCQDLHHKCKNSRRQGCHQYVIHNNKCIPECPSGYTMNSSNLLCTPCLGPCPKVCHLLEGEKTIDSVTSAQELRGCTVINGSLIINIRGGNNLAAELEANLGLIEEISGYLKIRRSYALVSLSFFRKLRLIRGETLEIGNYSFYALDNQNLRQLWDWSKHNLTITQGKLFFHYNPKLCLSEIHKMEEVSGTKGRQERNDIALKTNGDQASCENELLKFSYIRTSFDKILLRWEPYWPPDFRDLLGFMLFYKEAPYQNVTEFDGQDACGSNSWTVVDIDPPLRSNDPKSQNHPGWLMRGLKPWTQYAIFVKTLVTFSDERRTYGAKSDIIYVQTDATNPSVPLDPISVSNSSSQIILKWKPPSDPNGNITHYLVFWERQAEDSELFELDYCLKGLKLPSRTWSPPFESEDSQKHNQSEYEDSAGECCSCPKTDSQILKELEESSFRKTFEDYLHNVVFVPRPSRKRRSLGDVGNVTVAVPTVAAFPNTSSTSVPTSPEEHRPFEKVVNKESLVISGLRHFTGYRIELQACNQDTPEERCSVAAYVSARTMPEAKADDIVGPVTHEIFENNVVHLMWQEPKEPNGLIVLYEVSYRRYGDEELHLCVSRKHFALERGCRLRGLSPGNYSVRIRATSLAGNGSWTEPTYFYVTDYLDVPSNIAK

B1: 46.1-scFv-Fc (Fc fusion)
chain: QVQLQESGGGLAQPGGSLRLSCAASGFTFSGYWMHWVRQAPGKGLVWVSRIKGDGTDIEYADSVKGRFTISRDNAKNTLYLQMNSLRAEDTAVYYCARDLRQTHWFDSWGQGTLVTVSSGGGGSGGGGSGGGGSQSALTQDPAVSVALGQTVRITCQGDSLRSYYASWYQQKPGQAPVLVMYGENSRPSGIPDRFSGSNSGNTASLIITGAQAEDEADYYCSSRDTSGNHVLFGGGTKLTVLG
notes: scFv linked directly to rabbit IgG Fc, made in HEK293F cells; dimer; also called clone 46.1 scFv-Fc; not shown: rabbit IgG Fc region (pIRES-rabbit Fc vector)
  binding result: no binding

B2: 17-scFv-Fc (Fc fusion)
chain: QVQLLQSAGALVQPGGSLRLSCAASGFTFSSSTMHWVRQAPGKGLEWVAVVSYDGNTQYYADSVKGRFTISRDNSKNTLSLQMNNLRAEDTAVYYCAGLWGSLLGYFQHWGQGTLVTVSSGGGGSGGGGSGGGGSDIQMTQSPSFLSASVGDRVTITCRASQGVNNYLAWYQQKPGKAPKLLIYAASTLQSGVPSSFSGSGSGTEFTLTISSLQPEDFATYFCQQAHSFPPTFGGGTKLEIKR
notes: scFv linked directly to rabbit IgG Fc, made in HEK293F cells; dimer; also called clone 17 scFv-Fc; not shown: rabbit IgG Fc region (pIRES-rabbit Fc vector)
  binding result: no binding
